According to the nanobody polyreactivity screen of Harvey et al. (2022):

Experiment: yeast display, Sf9 membrane polyspecificity reagent, FACS + sequencing; frameworks hold sequencing errors
Procedure, shortened: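 In a synthetic yeast display library (Saccharomyces cerevisiae BJ5465), nanobody expression was induced with galactose for 36–48 hours. FACS gates were set low and high (top ~1%) using anti-HA fluorescence for expression and streptavidin fluorescence for binding of the Sf9 membrane reagent. Each polyreactivity label is drawn from the gate of origin.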

| Sequence | polyreactivity (PSR sort gate) |
| --- | --- |
| QVQLVESGGGLVQAGGSLRLSCASGRIFKKNALGWYRQAPGKERELVAGITISGGRTYYADSVKGRFTISRDNAKNTVYLQMNSLKPEDTAVYYCNAGPDRRVSYYRLLDHWGQGTQVTVSS | low polyreactivity |
| QVQLVESGGGLVQAGGSLRLSCASSGFIFFYYTKGWYRQAPGKERELVAAISTGGSTYYADSVKGRFTISRDNAKNTVYLQMNSLKPEDTAVYYCAALYWYEYTYLEYDYWGQGTQVTVSS | high polyreactivity |
| QVQLVESGGGLVQAGGSLRLSCASSGFTFKDYAMGWYRQAPGKERELVAAISYSGGSTYYADSVKGRFTLSRDNAKNTVYLQMNSLKPEDTAVYYCARYFRRSAIYTRPRMDYWGQGTQVTVSS | high polyreactivity |
| QVQLVESGGGLVQAGGSLRLSCASSGFTFSIYAMGWYRQAPGKERELVAAISSSGGITYYADAVKGRFTISRDNAKNTVYLQMKSLKPEDTAVYYWNKYFKTFYVSYLHDYWGQGTQVSVSS | high polyreactivity |
| QVQLVESGGGLVQAGGSLRLSCASSGFTFWRNAMGWYRQAPGKERELVAAINWSGGSTYYADSVKGRFTISRDNAKNTVYLQMNSLKPEDTAVYYCAADLSSRGISQDDYWGQCTQVTVSS | high polyreactivity |
| QVQLVESGGGLVQAGGSLRLSCASSGFTFWTYDMGWYRQAPGKERELVAAIDSGGSTYYADSVKGRFTISRDNAKNTVYLQMNSLKPEDTAVYYCNAGPSVTSGYDYDYWGQGTQVTVSS | low polyreactivity |
| QVQLVESGGGLVQAGGSLRLSCASSGIILYYYVMGWYRQAPGKERELVAAINRSGTSTYYADSVKGRFTISRDNAKNTVYLQMNSLKPEDTAVYYCAAERYWSGGVFDYDYWGQGTQVTVSS | high polyreactivity |
| QVQLVESGGGLVQAGGSLRLSCASSGITFDYYAMGWYRQAPGKERELVASISSDSSTYYADSVKGRFTISRDNAKNTVYLQMNSLKPEDTAVYYCNAGDTTFPFYYWGQGTQVTVSS | low polyreactivity |
| QVQLVESGGGLVQAGGSLRLSCASSGITFTFYVMGWYRQAPGKERELVAAISSGGGRTYYADSVKGRFTISRDNAKNTVYLQMNSLKPEDTAVYYCNAALYHDSEYNYWGQGTQVSVSS | high polyreactivity |
| QVQLVESGGGLVQAGGSLRLSCASSGKIFLSYAMGWYRQAPGKERELVAGISASGGRTYYADSVKGRFTISRDNAKNTVYLQMNSLKPEDTAVYYCNADTTPQGNVRDGYWGQGTQVTVSS | high polyreactivity |
| QVQLVESGGGLVQAGGSLRLSCASSGLILFYNAMGWYRQAPGKERELVATIRRGGTTYYADSVKGRFTISRDNAKNTVYLQMNSLKPEDTAVYYCAKESLYQYDYWGQGTQVTVSS | low polyreactivity |
| QVQLVESGGGLVQAGGSLRLSCASSGLTFELYAMGWYRQAPGKERELVAAITWSGGRTYYADSVKGRFTISRDNAKNTVYLQMNSLKPEDTAVYYCAADVYPGYVGSQEYDYWGQGTQVTVSS | low polyreactivity |
| QVQLVESGGGLVQAGGSLRLSCASSGLTLQYYAMGWYRQAPGKERELVAAITYSGGSTYYADSVKGRFTISRDNAKNTVYLQRNSLKPEDTGVYYCAKVPVRSGGTLYDYWGQGTQVTVSS | low polyreactivity |
| QVQLVESGGGLVQAGGSLRLSCASSGRIFGSYAMGWYRQAPGKERELVAGISKSGTSTYYADSVKGRFTISRDNAKNTVYLLMNSLKPEDTADYYCAKRFDSTKAKYYYWGQGTQGTVSS | high polyreactivity |
| QVQLVESGGGLVQAGGSLRLSCASSGRIFGYYVRGWYRQAPGTERELVATISRVGTTNYADSVKGRFTISRDNAKNSVYLPMNSLKPEDTAVYYCNADYTGHRGGNDYWGQGTQVTVSS | low polyreactivity |
| QVQLVESGGGLVQAGGSLRLSCASSGRIFPWNTMGWYRQAPGKERELVAGINNGDRTYYADSVKGRFTISRDNAKNRVYLQMNSLKPDETAVYYCARDDNPIYSGVTYDSWGQGTQVSVSS | low polyreactivity |
| QVQLVESGGGLVQAGGSLRLSCASSGRIFSFYAMGWYRQAPGKERELVAAISWNSGRTYYADSVKGRFTISRDNAKNTVYLQMNSLKPEDTAVYYCAAPFSAYYGDDYWGQGTQVTVSS | low polyreactivity |
| QVQLVESGGGLVQAGGSLRLSCASSGRIFYYYAMGWYRQAPGKEREFVARNRSSGGSTYADSVKGRFTISRDNAKNTVYLQMNSLKPEDTAVYYCARDGYTAVEYDYWGQGTQVTVSS | low polyreactivity |
| QVQLVESGGGLVQAGGSLRLSCASSGRNFQKYAMGWYRQAPGKERELVAAISSGDSTYADSVKGRFTISRDNAKNTVYFQMNSLKPEDTAVYYCAVDLYDPWWYSYIGEYEYWGQGTQVTVSS | low polyreactivity |
| QVQLVESGGGLVQAGGSLRLSCASSGRTFFKNALGWYRQSPGKERELVARISWNGGDSTYYADSVKGRFTISRDNAKITVFFQMISLKPEDTAVYYCAADTSYRQGGSRHGYVYWGQGTQVTVSS | low polyreactivity |
| QVQLVESGGGLVQAGGSLRLSCASSGRTFFPYAKGWYRQAPGKEREFVAAITKTDDSTYYADSVKGRFTISRDNAKNTVYLQMNSLKPEDTAVYYCNAGDTQIRFYYWGQGTQVTVSS | low polyreactivity |

| Sequence | polyreactivity (PSR sort gate) |
| --- | --- |
| QVQLVESGGGLVQAGGSLRLSCASSGRTFGTYAMGSYRQAPGKDSELVAAITSGTRTYYADCVKGRFTISRDNAKNTVYLQMNSQKPEDTSVYYCAAGLVYRWSSTPRRLYYYWGQGTQVTVSS | high polyreactivity |
| QVQLVESGGGLVQAGGSLRLSCASSGRTFLRYAMGWYRQAPGKERELVAAISSRGGTTHYADSVKGRFTISRDNAKNTVYLPMNSLKPEDTAVYYCAAKSFLPYLKFGYWGQGTQVTVSS | high polyreactivity |
| QVQLVESGGGLVQAGGSLRLSCASSGRTFVNNAMGWSRQAPGKERELVAAISQSGSRTYYADSVKGRFTISRDNAKNTVYLQMNSLKPEDTAVYYCAARGARYSTSDYWGQGTQVTVSS | high polyreactivity |
| QVQLVESGGGLVQAGGSLRLSCASSGRTFYSYAMGWYRQAPGKERELVAGITWSGTSTYYADSVKGRFTISRDNWKNTVYLQMYSLKPEDTAVYYCAAATLYSGYDYWGQGTQVSVSS | low polyreactivity |
| QVQLVESGGGLVQAGGSLRLSCASSGRTFYSYVMGWYRQAHGKERELVAGISKRGGRTYYADSVKGRFTISRDNAKNTVYLEMYSLKPEDTAVYFCADDFPHTYWTFDFDYWGQGTQVTVSS | high polyreactivity |
| QVQLVESGGGLVQAGGSLRLSCASSGRTIYGSTKGWYRQAPGKESELGAAIRRSGGSTYYADSVKGRFTISRDNAKNTVYFQMNRLNPEDTAVYYCAASWRDIYRHYNVYPYDYWGQGTQVTVSS | low polyreactivity |
| QVQLVESGGGLVQAGGSLRLSCASSGSIFARYALGWYIQAPGKQRELVADINSTVSTNYADSVKGRFTISRDNAKNPVYLQMNSLKPEVTAVSYCAVDIVRGGRDSWGQGTQVTVSS | low polyreactivity |
| QVQLVESGGGLVQAGGSLRLSCASSGSIFEANDMGWYRQAPGKEREFVADIDANSGSTYYADSVKGRFTISRDNAKNTVNLQMNSLKPEDTADYYCNAQVYLHTAYDYWGQVTQVTVSS | low polyreactivity |
| QVQLVESGGGLVQAGGSLRLSCASSGSILGRYAMGWYRQAPGKERELVAAISGSGGSTYYADSVKGRFTISRDNAKNTVYLQMNSLKPEDTAVYYCAAERFIYYQIFEYWGQGTQVTVSS | high polyreactivity |
| QVQLVESGGGLVQAGGSLRLSCASSGSTFDANAMGWYRQAPGKERELVAAITSNGGSTYYADSVKGRFTISRDNAKNTVYLQMNSLKPEDTAVYYCATEQHTVQDYDYWGQGTQVTVSS | low polyreactivity |
| QVQLVESGGGLVQAGGSLRLSCASSGSTFEANAMGWYRQAPGKERELVAVITWTGGSTYYADSVKGRFTISRDNAKNTLYLQMNSLKPEDTAVYYCDADGVVPGRFFWPAHEYEYWGQGTQGTVSS | low polyreactivity |
| QVQLVESGGGLVQAGGSLRLSCASSGSTFNRYAMVWYRQAPGKERELVAAISGSGSSTYYADSVKGRFTISRDNAKNTVYLQMNSLKPEDNAVYYCAAVRYHKFREYNSWGQGTQVTVSS | high polyreactivity |
| QVQLVESGGGLVQAGGSLRLSCASSGSTFNSYAMGWYRQAPGKERELVAAISWSGGSTYYADSVKGRFTISRDNAKNTVYLQMNSLKPEDTAVYYCNADYWWEYAYVVDYWGQGTQVTVSS | low polyreactivity |
| QVQLVESGGGLVQAGGSLRLSCASSGSTFSYYDMGWYRQAPGKERELVAAISWNGGTTYYADSVKGRFTISRDNAKNTVYLQMNSLKPEDTAVYYCAATWDFYWAPYDSWGQGTQVSVSS | low polyreactivity |
| QVQLVESGGGLVQAGGSLRLSCASSGSTFTPNAMGWYRQAPGKERELVASNYTTGGNTYYADSVKGRFTNSRDNAKNTVYLQMNSLKPEDTAVYYCNARQALVWKWSWYSPGYDYWGQGTQVTVSS | low polyreactivity |
| QVQLVESGGGLVQAGGSLRLSCASSGYILRSNAMVWYRQAPGKEREFVAAITYSGGTTYYADSVKGRFTISRDNAKNTVYLQMNSLKPEDTAVYYCNADYGYYKLDYWGQGTQVTVSS | low polyreactivity |
| QVQLVESGGGLVQAGGSLRLSCASSGYIYIVNAMGWYRQAPGKERELDAAINSSGGNTYYADSVKGRFTISRDNAKNTVYLQMNSLKPEDTGVYYCAADQAKDISFEYDYWGQGTQVTVSS | low polyreactivity |
| QVQLVESGGGLVQAGGSLRLSCASSGYTFVYYAMGWYRQAPGKERELVAAINVSDGNTFYADSVKGRFTISRDNAKNTVYLQMNSLIPEDTAVYYCAADYYPYPPTSEYGYWGQGTQVTVSS | low polyreactivity |
| QVQLVESGGGLVQAGGSLRLSCASSVRIFEVYAMGSYRQAPGKERELVADITYSGGSTYYADSVKGRFTISRDNAMNTVYLQMNSLKPEDTAVYYCAADVTFVHRYEYYRSYDYWGQGTQVTVSS | low polyreactivity |
| QVQLVESGGGLVQAGGSLRLSCATSGFTLLKNAMGWYRQAPGKERELVAAIRQRGTTTYYADSVKGRFTISRDNAKNTVYLQMNSLKPEDTAVYSCNAGRRTGRYGYWGQGTQVTVSS | high polyreactivity |
